For the assay, the target named is Human CCR8 (human) (UniProt P51685). Put plainly: cell-based or functional assay.
Sequence of Human CCR8 (human) (P51685 whole entry): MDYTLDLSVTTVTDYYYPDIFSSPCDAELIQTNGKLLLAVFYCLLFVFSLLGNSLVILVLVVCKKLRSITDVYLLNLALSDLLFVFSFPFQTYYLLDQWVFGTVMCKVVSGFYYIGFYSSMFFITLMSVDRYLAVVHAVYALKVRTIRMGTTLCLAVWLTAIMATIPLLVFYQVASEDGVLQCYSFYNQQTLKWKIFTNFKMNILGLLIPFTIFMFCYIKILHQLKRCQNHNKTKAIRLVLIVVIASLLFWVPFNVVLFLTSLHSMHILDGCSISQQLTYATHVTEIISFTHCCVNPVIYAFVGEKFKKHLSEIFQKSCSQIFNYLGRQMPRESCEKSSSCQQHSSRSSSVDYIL

For “human CCL1 (from UniProt P22362 24-96) (ligand)”, the EC90 of chemotaxis of hCCR8 L1.2 cells worked out at 5.84 nM.

For the origin of these results see patent publication US20260098096A1.
